This note sets out measurements from article PMC6100179, “Kinetic Basis of the Bifunctionality of SsoII DNA Methyltransferase”.

Data set [1] deals with T1, M.SsoII (two subunits on DNA) (UniProt P34879 1-379).
T1 sequence: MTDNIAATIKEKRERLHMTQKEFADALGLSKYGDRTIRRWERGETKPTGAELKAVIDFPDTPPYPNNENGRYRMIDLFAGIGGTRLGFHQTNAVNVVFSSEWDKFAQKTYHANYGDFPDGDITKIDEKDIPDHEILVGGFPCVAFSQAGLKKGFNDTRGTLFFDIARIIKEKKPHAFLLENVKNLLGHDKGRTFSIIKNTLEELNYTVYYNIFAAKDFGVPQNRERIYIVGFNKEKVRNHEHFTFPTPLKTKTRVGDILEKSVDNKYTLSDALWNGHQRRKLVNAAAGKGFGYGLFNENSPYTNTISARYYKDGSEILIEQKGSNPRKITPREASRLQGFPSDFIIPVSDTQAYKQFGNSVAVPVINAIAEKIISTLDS
Kind of data set: EMSA; 100 uM AdoHcy; cooperative, C2 much more than C1; EMSA: 50 mM Tris-HCl pH 7.5, 100 mM NaCl, 5 mM beta-mercaptoethanol, 0.1 mg/mL BSA, 25% glycerol, 100 uM AdoHcy, 37 C then room temperature, 2.5 nM DNA; stopped-flow: 50 mM Tris-HCl pH 7.5, 100 mM NaCl, 5 mM beta-mercaptoethanol, 25 C, 100 nM DNA. The following applies: protein: recombinant; tags: N-terminal His-tag MRGS(H)6TDPLETC; chain copies: 2; label: TAMRA (internal, on dU C5, position 5). On the technique in general: A gel shift assay detects complexes by their altered migration in electrophoresis.

The target in data set [2] is T2, M.SsoII (monomer on DNA) (UniProt P34879 1-379).
T2 sequence: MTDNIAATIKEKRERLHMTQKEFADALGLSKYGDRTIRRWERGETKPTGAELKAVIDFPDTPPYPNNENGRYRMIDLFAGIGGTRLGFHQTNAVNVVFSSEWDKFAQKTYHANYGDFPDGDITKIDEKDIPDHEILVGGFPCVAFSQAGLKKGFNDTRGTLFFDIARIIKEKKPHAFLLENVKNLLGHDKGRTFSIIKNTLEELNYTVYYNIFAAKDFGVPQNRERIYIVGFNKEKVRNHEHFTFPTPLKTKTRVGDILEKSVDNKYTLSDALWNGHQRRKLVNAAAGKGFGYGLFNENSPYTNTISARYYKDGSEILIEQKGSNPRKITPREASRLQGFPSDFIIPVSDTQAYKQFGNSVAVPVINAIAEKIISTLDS
Put plainly: stopped-flow fluorescence anisotropy; 100 uM AdoHcy; k1 352 uM-1 s-1, k-1 71 s-1, k2 2.30 s-1, k-2 12.8 s-1; EMSA: 50 mM Tris-HCl pH 7.5, 100 mM NaCl, 5 mM beta-mercaptoethanol, 0.1 mg/mL BSA, 25% glycerol, 100 uM AdoHcy, 37 C then room temperature, 2.5 nM DNA; stopped-flow: 50 mM Tris-HCl pH 7.5, 100 mM NaCl, 5 mM beta-mercaptoethanol, 25 C, 100 nM DNA. As to conditions: protein: recombinant; tags: N-terminal His-tag MRGS(H)6TDPLETC; label: TAMRA (internal, on dU C5, position 5).

The target of data set [3] is T1, M.SsoII (two subunits on DNA). Kind of data set: EMSA; 100 uM AdoHcy; C2* above 2:1 protein/DNA, second molecule presumably nonspecific; EMSA: 50 mM Tris-HCl pH 7.5, 100 mM NaCl, 5 mM beta-mercaptoethanol, 0.1 mg/mL BSA, 25% glycerol, 100 uM AdoHcy, 37 C then room temperature, 2.5 nM DNA; stopped-flow: 50 mM Tris-HCl pH 7.5, 100 mM NaCl, 5 mM beta-mercaptoethanol, 25 C, 100 nM DNA. The following applies: protein: recombinant; tags: N-terminal His-tag MRGS(H)6TDPLETC; chain copies: 2; label: TAMRA.

Data set [4] has as its target T2, M.SsoII (monomer on DNA). Put plainly: stopped-flow fluorescence anisotropy; 100 uM AdoMet; k1 386 uM-1 s-1, k-1 154 s-1, k2 0.68 s-1, k-2 6.5 s-1; EMSA: 50 mM Tris-HCl pH 7.5, 100 mM NaCl, 5 mM beta-mercaptoethanol, 0.1 mg/mL BSA, 25% glycerol, 100 uM AdoHcy, 37 C then room temperature, 2.5 nM DNA; stopped-flow: 50 mM Tris-HCl pH 7.5, 100 mM NaCl, 5 mM beta-mercaptoethanol, 25 C, 100 nM DNA. The following applies: protein: recombinant; tags: N-terminal His-tag MRGS(H)6TDPLETC; label: TAMRA (position 21).

The target in data set [5] is T2, M.SsoII (monomer on DNA). Kind of data set: stopped-flow fluorescence anisotropy; 100 uM AdoHcy; k1 226 uM-1 s-1, k-1 158 s-1, k2* 0.22 s-1, k-2* 0.50 s-1; EMSA: 50 mM Tris-HCl pH 7.5, 100 mM NaCl, 5 mM beta-mercaptoethanol, 0.1 mg/mL BSA, 25% glycerol, 100 uM AdoHcy, 37 C then room temperature, 2.5 nM DNA; stopped-flow: 50 mM Tris-HCl pH 7.5, 100 mM NaCl, 5 mM beta-mercaptoethanol, 25 C, 100 nM DNA. The following applies: protein: recombinant; tags: N-terminal His-tag MRGS(H)6TDPLETC; label: TAMRA (bottom 33 or 35).

Data set [6] concerns the target T2, M.SsoII (monomer on DNA). Kind of data set: stopped-flow fluorescence anisotropy; 100 uM AdoHcy; k1 181 uM-1 s-1, k-1 143 s-1, k2* 0.40 s-1, k-2* 1.5 s-1; EMSA: 50 mM Tris-HCl pH 7.5, 100 mM NaCl, 5 mM beta-mercaptoethanol, 0.1 mg/mL BSA, 25% glycerol, 100 uM AdoHcy, 37 C then room temperature, 2.5 nM DNA; stopped-flow: 50 mM Tris-HCl pH 7.5, 100 mM NaCl, 5 mM beta-mercaptoethanol, 25 C, 100 nM DNA. The following applies: protein: recombinant; tags: N-terminal His-tag MRGS(H)6TDPLETC; label: TAMRA (top 25 or bottom 33/35).

The target of data set [7] is T1, M.SsoII (two subunits on DNA). Put plainly: EMSA; 100 uM AdoHcy; C1 and C2; EMSA: 50 mM Tris-HCl pH 7.5, 100 mM NaCl, 5 mM beta-mercaptoethanol, 0.1 mg/mL BSA, 25% glycerol, 100 uM AdoHcy, 37 C then room temperature, 2.5 nM DNA; stopped-flow: 50 mM Tris-HCl pH 7.5, 100 mM NaCl, 5 mM beta-mercaptoethanol, 25 C, 100 nM DNA. As to conditions: protein: recombinant; tags: N-terminal His-tag MRGS(H)6TDPLETC; chain copies: 2; label: TAMRA (position 5).

The target in data set [8] is T2, M.SsoII (monomer on DNA). Put plainly: stopped-flow fluorescence anisotropy; 100 uM AdoMet; k1 390 uM-1 s-1, k-1 88 s-1, k2 1.13 s-1, k-2 9.6 s-1; EMSA: 50 mM Tris-HCl pH 7.5, 100 mM NaCl, 5 mM beta-mercaptoethanol, 0.1 mg/mL BSA, 25% glycerol, 100 uM AdoHcy, 37 C then room temperature, 2.5 nM DNA; stopped-flow: 50 mM Tris-HCl pH 7.5, 100 mM NaCl, 5 mM beta-mercaptoethanol, 25 C, 100 nM DNA. The following applies: protein: recombinant; tags: N-terminal His-tag MRGS(H)6TDPLETC; label: TAMRA (position 5).

B1: 60reg-1 (dsDNA)
DNA 1: ACGTTCATAATTGGAATCAAAACAGGACAAATTGTCCTAAAACCAACACTTAATTCTGGT
DNA 2: ACCAGAATTAAGTGTTGGTTTTAGGACAATTTGTCCTGTTTTGATTCCAATTATGAACGT
Consider B1, for which the binding result in data set [1] and in data set [2] was “binds” throughout.

B2: 60half-2 (dsDNA)
DNA 1: ACGTTCATAATTGGAATCAAAACCATTATCATTGTCCTAAAACCAACACTTAATTCTGGT
DNA 2: ACCAGAATTAAGTGTTGGTTTTAGGACAATGATAATGGTTTTGATTCCAATTATGAACGT
For the molecule B2, in data set [3], the binding result is “binds”.

B3: 60half-1 (dsDNA)
DNA 1: ACGTTCATAATTGGAATCAAAACAGGACAAACATTATCAAAACCAACACTTAATTCTGGT
DNA 2: ACCAGAATTAAGTGTTGGTTTTGATAATGTTTGTCCTGTTTTGATTCCAATTATGAACGT
As for B3, the binding result in data set [3] is recorded as “binds”.

B4: 60reg-4 (dsDNA)
DNA 1: GAAAGTTTTTTCATGCACGTTCATAATTGGAATCAAAACAGGACAAATTGTCCTAAAACC
DNA 2: GGTTTTAGGACAATTTGTCCTGTTTTGATTCCAATTATGAACGTGCATGAAAAAACTTTC
On to B4, for which, in data set [4], the binding result is listed as “binds”.

B5: 60met-mC (dsDNA)
DNA 1: GACTTACAGTTGATAGTATGAAGCTAGAGCCAGGTTGGCAGCATTCTACTCATGTACTTG
DNA 2: CAAGTACATGAGTAGAATGCTGCCAACCTGGCTCTAGCTTCATACTATCAACTGTAAGTC
modifications: 5-methylcytosine in top strand of methylation site
For B5, the binding result in data set [5] is “binds”.

B6: 60met (dsDNA)
DNA 1: GACTTACAGTTGATAGTATGAAGCTAGAGCCAGGTTGGCAGCATTCTACTCATGTACTTG
DNA 2: CAAGTACATGAGTAGAATGCTGCCAACCTGGCTCTAGCTTCATACTATCAACTGTAAGTC
B6: the binding result in data set [6] was “binds”.

B7: 60reg-2 (dsDNA)
DNA 1: ACGTTCATAATTGGAATCTTTTCAGGACAAATTGTCCTTTTTCCAACACTTAATTCTGGT
DNA 2: ACCAGAATTAAGTGTTGGAAAAAGGACAATTTGTCCTGAAAAGATTCCAATTATGAACGT
B7: the binding result in data set [7] and in data set [8] was “binds” each time.

B8: 60reg-3 (dsDNA)
DNA 1: ACGTTCATAATTGGAATCTGCTCAGGACAAATTGTCCTTGCTCCAACACTTAATTCTGGT
DNA 2: ACCAGAATTAAGTGTTGGAGCAAGGACAATTTGTCCTGAGCAGATTCCAATTATGAACGT
Regarding B8, the binding result in data set [7] is on record as “binds”.
